Experiments:
[1] = target: T1, histidine-tagged extracellular domain of human Fc gamma receptor IIb/c (Pichia pastoris produced) (human, UniProt P31994 46-217); assay: FcγR ELISA, receptor coated on plate
T1 construct: also called FcγRIIb/c; FcγRIIb
T1 sequence: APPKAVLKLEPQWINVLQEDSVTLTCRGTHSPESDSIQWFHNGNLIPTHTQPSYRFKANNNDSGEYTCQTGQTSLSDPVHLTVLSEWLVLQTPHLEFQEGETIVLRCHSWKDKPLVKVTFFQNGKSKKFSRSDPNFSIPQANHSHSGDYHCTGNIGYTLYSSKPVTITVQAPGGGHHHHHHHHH
Method: (§1) High protein binding 96-well plates (Corning Costar, Lowell, Mass.) were coated with 100 μl per well of Fcγ receptor solutions in PBS at the following concentrations: 1 μg/mL for FcγRI (R & D Systems) and FcγRIIa (Pichia pastoris produced), 2 μg/mL for FcγRIIb/c (P. pastoris produced), 0.4 μg/mL for FcγRIIIa-V158, and 0.8 μg/mL for FcγRIIIa-F158 (both P. pastoris produced).
(§2) For FcγRI, the antibody was coated in assay diluent (1% BSA, PBS, 0.05% Tween20) in monomeric form. For all other receptors, the antibody was coated after dimerization with alkaline phosphatase conjugated anti-human IgG F(ab′)₂ (Jackson ImmunoResearch, West Grove, Pa.) for one hour at room temperature. FcγRI bound antibody was also detected using the F(ab′)₂ and all plates were quantified by measuring excitation at 340 nm and emission at 465 nm after an 18 hour incubation with SuperPhosk (Virolabs, Chantilly, Va.).

[2] = target: T2, FcγRI (Fc receptor gamma-chain I, CD64) (UniProt P12314 16-288); assay: FcγR ELISA
T2 construct: also called FcγR1
T2 sequence (P12314 16-288 limits assumed): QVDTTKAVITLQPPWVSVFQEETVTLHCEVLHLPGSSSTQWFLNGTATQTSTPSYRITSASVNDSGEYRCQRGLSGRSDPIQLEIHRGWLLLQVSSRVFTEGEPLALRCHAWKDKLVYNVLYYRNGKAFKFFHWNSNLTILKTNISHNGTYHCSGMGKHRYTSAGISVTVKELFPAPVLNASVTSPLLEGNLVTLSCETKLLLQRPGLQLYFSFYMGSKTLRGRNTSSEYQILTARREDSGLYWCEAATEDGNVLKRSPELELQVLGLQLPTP
Method: as §1, §2

binding result [1]: no binding
fold reduction in binding vs parent antibody (produced in GFI5.0) [2]: ~4 fold
B1: anti-PCSK9 double mutein antibody F243A/V264A produced in GFI6.0 (antibody, human IgG1, kappa)
heavy: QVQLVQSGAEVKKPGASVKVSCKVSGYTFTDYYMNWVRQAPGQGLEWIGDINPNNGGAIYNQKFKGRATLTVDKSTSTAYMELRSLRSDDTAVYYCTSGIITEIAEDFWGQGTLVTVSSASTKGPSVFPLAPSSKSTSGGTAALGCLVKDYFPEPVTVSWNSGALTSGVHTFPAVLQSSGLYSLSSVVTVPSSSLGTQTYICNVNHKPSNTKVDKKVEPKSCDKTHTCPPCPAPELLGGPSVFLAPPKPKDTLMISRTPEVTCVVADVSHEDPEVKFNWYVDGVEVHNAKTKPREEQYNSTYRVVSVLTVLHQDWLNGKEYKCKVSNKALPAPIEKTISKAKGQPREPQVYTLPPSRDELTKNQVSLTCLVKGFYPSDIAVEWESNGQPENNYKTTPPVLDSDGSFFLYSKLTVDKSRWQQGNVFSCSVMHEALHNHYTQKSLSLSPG
light: DIQMTQSPSSLSASVGDRVTITCKASQNVGTNVVWYQQKPGKAPKALIHSASYRYSGVPSRFSGSGSGTDFTLTISSLQPEDFATYYCQQYKTYPYTFGQGTKVEIKRTVAAPSVFIFPPSDEQLKSGTASVVCLLNNFYPREAKVQWKVDNALQSGNSQESVTEQDSKDSTYSLSSTLTLSKADYEKHKVYACEVTHQGLSSPVTKSFNRGEC

Source: US20130071390A1 (Merck Sharp & Dohme, published 2013)
